Reference: PMC4840320 (Scientific Reports, 2016)
Substitutions are numbered along the chain they refer to. Names and notes keep the numbering of the source.

B1: His-tagged ARL-3 (natural protein, C. elegans, UniProt O45379 1-184, looked up)
chain: MGLIDVLKSFKSPSGREIRILLLGLDNAGKTTILKQLSSEDVQHVTPTKGFNVKTVAAMGDIRLNVWDIGGQRSIRPYWSNYYENIDTLIFVIDSNDKKRFDEMNIELGELLDEEKLRKVPVLIFANKQDLVTAASSEEITRKLNLDLLRDRTWHIQACSALKNEGINDGITWVASNLKPASKK
notes: ARL-3, small GTPase of C. elegans, wild type; the methods speak of full-length and/or truncated cDNAs, and no truncation of ARL-3 is named; also called His-ARL-3; source: E. coli BL21, purified (His resin); not shown: His, N-terminal, kept
B2: ARL-3 dominant negative (DN, T31N) variant, recombinant (natural protein, C. elegans, UniProt O45379 1-184, looked up)
chain: B1 chain with T31N
notes: ARL-3, C. elegans, dominant negative variant T31N; also called ARL-3 DN; ARL-3DN (T31N); source: E. coli BL21, purified (His resin or glutathione sepharose)
B3: ARL-3 dominant active (DA, Q72L) variant, recombinant (natural protein, C. elegans, UniProt O45379 1-184, looked up)
chain: B1 chain with Q72L
notes: ARL-3, C. elegans, dominant active variant Q72L; also called ARL-3 DA; source: E. coli BL21, purified (His resin or glutathione sepharose)
B4: GST-fused full length ARL-13 (FL) (natural protein, C. elegans, UniProt H2L0N8-2 1-367, looked up)
chain: MTEKSWFETIFCCCCHRTPIIRREIKLGCFGIGSAGKTTFLKVLKGEDPRDLLRTNGFSTVKMEYDETFHLTIYDVGGDKGIRGIWSNYYAEVHGIIYVIDYSTDETFTESIEALHSLTSNPHVQKKPIFLLLNNQNNREFDDVEISNETKIQAGQHKIVLFSHFNKYNGYLDNIKSATLTVMARAKKDRNEYQEQFVRFIDSISEHYVELSEGVKTAELALRIRQEEAKEQRRLMQMKVEHDALKADVAGLELRNQPPVQPPIPPDPPSDPKSASVHIEESPPMSLASSTIPSDIIQSTPETGTPRDPVKISQTSTKPVSPESNSVKEEPTIILKDNYFLPPKAPGRQYSRIQRIQNVLNNRVVPK

Experiments:
[1] = target: T1, UNC-119, recombinant, as used in the GST pull-downs with ARL-3 and its variants (C. elegans, UniProt Q10658 1-219); experiment: pull-down; GST pull-down: His-tagged protein incubated with GST-tagged protein immobilised on glutathione sepharose; 25 mM Tris-HCl pH 7.4, 150 mM NaCl, 0.5% Triton X-100, 1 mM DTT, 10% glycerol, 4 hours at 4 °C; six washes; anti-His immunoblot; conditions: both partners purified
T1 construct: if it carried the His tag it is the same construct as m6 and ARL-3 was GST-fused; source: E. coli BL21, purified (His resin or glutathione sepharose)
T1 sequence (Q10658 whole entry, change not shown, the tested form may be a part): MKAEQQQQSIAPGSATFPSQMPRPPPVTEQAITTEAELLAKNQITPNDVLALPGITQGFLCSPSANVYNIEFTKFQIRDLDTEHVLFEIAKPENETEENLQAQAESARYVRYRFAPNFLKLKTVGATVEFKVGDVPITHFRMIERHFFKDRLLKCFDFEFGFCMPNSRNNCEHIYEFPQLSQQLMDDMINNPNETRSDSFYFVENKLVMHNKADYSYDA

His-tagged ARL-3 = target: B1; experiment: cell-based or functional assay

binding result [1]	mantGDP release from GDP-preloaded ARL-3 (in vitro GEF assay), ARL-13 from one-tenth molar (~2 fold) to a 1:1 molar ratio (His-tagged ARL-3) [fold]	Binder
binds	–	B1
binds	–	B2
binds	–	B3
–	~7	B4
